Test results: patent publication US20150239980A1 (NEOTOPE BOSCIENCES, published 2015)

T1: recombinant hMCAM-His (human, UniProt P43121 24-559)
T1 construct: not shown: His tag
T1 chain: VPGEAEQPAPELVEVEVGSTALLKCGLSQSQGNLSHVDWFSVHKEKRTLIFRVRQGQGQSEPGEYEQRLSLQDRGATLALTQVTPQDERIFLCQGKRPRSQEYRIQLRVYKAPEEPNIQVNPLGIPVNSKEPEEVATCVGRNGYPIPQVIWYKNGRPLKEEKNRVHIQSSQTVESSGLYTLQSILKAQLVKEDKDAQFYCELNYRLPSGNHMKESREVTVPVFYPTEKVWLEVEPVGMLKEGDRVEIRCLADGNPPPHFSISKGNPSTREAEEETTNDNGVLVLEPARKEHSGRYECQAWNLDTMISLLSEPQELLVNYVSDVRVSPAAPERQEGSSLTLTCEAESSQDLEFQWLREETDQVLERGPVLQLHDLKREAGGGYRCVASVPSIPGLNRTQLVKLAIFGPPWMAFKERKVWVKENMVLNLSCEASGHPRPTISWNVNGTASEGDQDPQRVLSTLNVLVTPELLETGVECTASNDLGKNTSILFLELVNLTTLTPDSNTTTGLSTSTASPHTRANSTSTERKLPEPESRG

T2: human MCAM (melanoma cell adhesion molecule) expressed on transfected CHO cells (human, UniProt P43121 24-646)
T2 construct: also called hMCAM; CD146
T2 chain: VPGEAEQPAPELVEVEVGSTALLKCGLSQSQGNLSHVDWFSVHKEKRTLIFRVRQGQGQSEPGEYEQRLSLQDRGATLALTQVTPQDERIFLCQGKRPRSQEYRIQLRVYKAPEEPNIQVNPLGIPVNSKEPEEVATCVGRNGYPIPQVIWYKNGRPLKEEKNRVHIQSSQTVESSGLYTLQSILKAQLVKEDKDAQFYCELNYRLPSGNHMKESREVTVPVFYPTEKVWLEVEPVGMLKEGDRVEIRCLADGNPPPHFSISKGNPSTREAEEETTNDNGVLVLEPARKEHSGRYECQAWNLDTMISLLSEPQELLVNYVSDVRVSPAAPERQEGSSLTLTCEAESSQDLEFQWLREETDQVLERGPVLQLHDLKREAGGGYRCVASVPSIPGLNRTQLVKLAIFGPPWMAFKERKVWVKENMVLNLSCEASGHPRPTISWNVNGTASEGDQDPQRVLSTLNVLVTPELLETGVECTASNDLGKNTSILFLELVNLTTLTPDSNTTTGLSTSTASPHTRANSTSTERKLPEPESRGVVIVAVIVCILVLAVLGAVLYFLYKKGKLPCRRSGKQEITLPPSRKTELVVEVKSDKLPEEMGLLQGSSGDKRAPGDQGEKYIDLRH

B1: h2107_VH4 + h2107_VL2 (antibody, human IgG1, V domains shown)
VH: QVTLKESGPVLVKPTETLTLTCTVSGFSLTSSGVSWVRQPPGKALEWIAAISSGGSTYYNSAFKSRLTISPDTSKSQVVLTMTNMDPVDTATYYCARHRPFYFDYWGQGTLVTVSS
VL: DIQMTQSPSSLSASVGDRVTITCKGSQNIYKSLAWFQLKPGKVPKLLIYDANSLQTGIPSRFSGSGSGTDFTLTISSLQPEDVATYYCQQYYSGYTFGGGTKVEIK
B2: h1749VH1 + h1749VL2 (antibody, human IgG1, V domains shown)
VH: EVQLVESGGGLVQPGGSLRLSCAASGFTFSSYIMSWVRQAPGKGLEWVATISSGGSSTYYPDSVKGRFTISRDNAKNSLYLQMNSLRAEDTAVYYCTRDDDYDVKVFAYWGQGTMVTVSS
VL: DIVMTQSPDSLAVSLGERATINCKSSRSLLNSRIRKNYLAWYQQKPGQPPKLLIYWASTRESGVPDRFTGSGSGTDFTLTISSLQAEDVAVYYCKQSYNLLTFGQGTKVEIK
B3: h1749VH2 + h1749VL1 (antibody, human IgG1, V domains shown)
VH: EVQLVESGGGLVQPGGSLRLSCAASGFTFSSYIMSWVRQAPGKRLEWVATISSGGSSTYYPDSVKGRFTISRDNAKNSLYLQMNSLRAEDTAVYYCTRDDDYDVKVFAYWGQGTMVTVSS
VL: DIVMTQSPDSLAVSLGERATINCKSSRSLLNSRIRKNYLAWYQQKPGQPPKLLIYWASTRESGVPDRFSGSGSGTDFTLTISSLQAEDVAVYYCKQSYNLLTFGQGTKVEIK
notes: also called h1749VH2VL1
B4: chimeric 1749 TM (antibody, V domains shown)
VH: DVKLVESGGDLVKPGGSLKLSCAASGFTFSSYIMSWVRQTPEKRLEWVATISSGGSSTYYPDSVKGRFTISRDNAKNTLYLQMSSLKSEDTAMYYCTRDDDYDVKVFAYWGQGTLVTVSA
VL: DIVMSQSPSSLAVSAGEKVTMNCKSSRSLLNSRIRKNYLAWYQQKPGQSPKLLIYWASTRESGVPDRFTGSGSGTDFTLTISSVQAEDLAVYYCKQSYNLLTFGAGTKLELK

Tests used:
recombinant hMCAM-His [1] = target: T1, recombinant hMCAM-His; assay: competitive ELISA on hMCAM-His, competitor biotinylated rodent or chimeric 2107; Expt. #1; vs rodent 2107
Experimental: (§1) ELISA plates were coated with recombinant hMCAM-His, and blocked with casein buffer to prevent non-specific binding. Biotinylated rodent or chimeric antibody was added at a subsaturating concentration, in the presence or absence of 3× increasing concentrations of unlabeled competitor (humanized antibody, rodent, or chimeric). After washing to remove unbound antibody, streptavidin HRP was added to allow detection of the biotinylated antibody. The ELISA was developed with TMB substrate and the OD450 was measured. The IC50 of the unlabeled competitor was determined using the GraphPad Prism5 software.

recombinant hMCAM-His [2] = target: T1, recombinant hMCAM-His; assay: ForteBio Octet Red, hMCAM-His analyte; Expt. #1; vs rodent 2107
Experimental: (§2) The affinities were measured using the ForteBio Octet Red. Anti-human Fc sensors were used to capture the humanized antibodies, and several concentrations of hMCAMHis analyte were used to determine the affinity using a 1:1 fitting model.

[3] = target: T2, human MCAM (melanoma cell adhesion …); assay: summary of laminin blocking assay on hMCAM CHO cells, competitor laminin 411; vs rodent 1749
Experimental: (§3) Following incubation for 30-45 minutes, the cells were washed and anti-laminin conjugated to AF650 (NovusBio) was added to detect the bound laminin. The cells were run on a flow cytometer to measure the laminin binding signal.

[4] = target: T2, human MCAM (melanoma cell adhesion …); assay: laminin/FACS on hMCAM CHO cells, competitor laminin 411; Expt#2; vs rodent 1749
Experimental: as §3

recombinant hMCAM-His [5] = target: T1, recombinant hMCAM-His; assay: summary of ForteBio and competitive ELISA on hMCAM-His; vs rodent 1749
Experimental: as §1, §2

[6] = target: T2, human MCAM (melanoma cell adhesion …); assay: laminin/FACS on hMCAM CHO cells, competitor laminin 411; Expt#1; vs rodent 1749
Experimental: as §3

recombinant hMCAM-His [7] = target: T1, recombinant hMCAM-His; assay: competitive ELISA on hMCAM-His, competitor biotinylated rodent or chimeric 1749; vs rodent 1749
recombinant hMCAM-His [8] = target: T1, recombinant hMCAM-His; assay: ForteBio Octet Red, hMCAM-His analyte; Forte column 1; vs rodent 1749
Experimental: as §2

recombinant hMCAM-His [9] = target: T1, recombinant hMCAM-His; assay: competitive ELISA on hMCAM-His, competitor biotinylated rodent or chimeric 1749; Expt. #2; vs rodent 1749
Experimental: as §1

Binder	fold over rodent (competitive ELISA) (recombinant hMCAM-His [1]) [fold]	fold over rodent (Forte affinity) (recombinant hMCAM-His [2]) [fold]	fold reduction in potency compared to the rodent [3] [fold]	fold over rodent (blocking, laminin/FACS) [4] [fold]	fold reduction in affinity compared to the rodent (recombinant hMCAM-His [5]) [fold]	fold over rodent (blocking, laminin/FACS) [6] [fold]	fold over rodent (competitive ELISA) (recombinant hMCAM-His [7]) [fold]	fold over rodent (Forte affinity) (recombinant hMCAM-His [8]) [fold]	fold over rodent (competitive ELISA) (recombinant hMCAM-His [9]) [fold]
B1	11.7	5.59	–	–	–	–	–	–	–
B2	–	–	< 2	1.2	< 2	1.1	1	2.5	–
B3	–	–	< 2	1.8	< 2	1.5	1	1.2	–
B4	–	–	–	–	–	–	–	–	1.07
